Where two headings read alike, the source gives them in different places.
Tests used:
[1] = biological target: cynomolgus CCR8 (cynomolgus) (UniProt G7NYJ2); test: FACS on HEK293-cynomolgus CCR8 cells
[2] = biological target: cynomolgus CCR8 (cynomolgus) (UniProt G7NYJ2); test: FACS on HEK293-cynomolgus CCR8 cells; remark: listed apart in the source
human CCR8 (human) [3] = biological target: human CCR8 (human) (UniProt P51685); test: FACS, competition with AF647-human CCL1 on CHO-K1-human CCR8 cells
Chain of human CCR8 (human) (P51685 whole entry): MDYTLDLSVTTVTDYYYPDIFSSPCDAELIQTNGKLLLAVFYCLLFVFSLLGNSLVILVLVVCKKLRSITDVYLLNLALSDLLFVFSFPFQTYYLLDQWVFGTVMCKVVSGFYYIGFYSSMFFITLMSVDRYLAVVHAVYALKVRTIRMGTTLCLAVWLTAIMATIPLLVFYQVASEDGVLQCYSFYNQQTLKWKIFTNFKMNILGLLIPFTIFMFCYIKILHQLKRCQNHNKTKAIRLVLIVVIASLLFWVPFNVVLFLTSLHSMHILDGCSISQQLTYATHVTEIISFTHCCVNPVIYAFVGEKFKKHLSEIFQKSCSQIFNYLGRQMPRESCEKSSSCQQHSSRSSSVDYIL

human CCR8 (human) [4] = biological target: human CCR8 (human) (UniProt P51685); test: FACS on HuT78 cells (endogenous human CCR8)
[5] = biological target: cynomolgus CCR8 (cynomolgus) (UniProt G7NYJ2); test: FACS on ExpiCHO-S-cynomolgus CCR8 cells
[6] = biological target: cynomolgus CCR8 (cynomolgus) (UniProt G7NYJ2); test: FACS on HEK293-cynomolgus CCR8 cells; remark: listed apart in the source
human CCR8 (human) [7] = biological target: human CCR8 (human) (UniProt P51685); test: FACS on HuT78 cells (endogenous human CCR8); remark: listed apart in the source
[8] = biological target: cynomolgus CCR8 (cynomolgus) (UniProt G7NYJ2); test: FACS on cynomolgus CCR8 cells
human CCR8 (human) [9] = biological target: human CCR8 (human) (UniProt P51685); test: FACS on HEK293-human CCR8 cells
human CCR8 (human) [10] = biological target: human CCR8 (human) (UniProt P51685); test: FACS, competition with CCL1 on CHO-K1-human CCR8 cells
human CCR8 (human) [11] = biological target: human CCR8 (human) (UniProt P51685); test: FACS on CHO-K1-human CCR8 cells
human CCR8 (human) [12] = biological target: human CCR8 (human) (UniProt P51685); test: FACS on CHO-K1-human CCR8 cells; remark: listed apart in the source
human CCR8 (human) [13] = biological target: human CCR8 (human) (UniProt P51685); test: FACS, competition with AF647-human CCL1 on CHO-K1-human CCR8 cells; remark: listed apart in the source
human CCR8 (human) [14] = biological target: human CCR8 (human) (UniProt P51685); test: FACS on HEK293-human CCR8 cells; remark: listed apart in the source
human CCR8 (human) [15] = biological target: human CCR8 (human) (UniProt P51685); test: cell-based or functional assay
human CCR8 (human) [16] = biological target: human CCR8 (human) (UniProt P51685); test: FACS, competition with AF647-human CCL1 on CHO-K1-human CCR8 cells; remark: listed apart in the source
human CCR8 (human) [17] = biological target: human CCR8 (human) (UniProt P51685); test: FACS, competition with CCL1 on CHO-K1-human CCR8 cells; remark: listed apart in the source
human CCR8 (human) [18] = biological target: human CCR8 (human) (UniProt P51685); test: FACS competition with 4 nM AF647-human CCL1 on human CCR8 cells
[19] = biological target: cynomolgus CCR8 (cynomolgus) (UniProt G7NYJ2); test: FACS on HEK293-Cynomolgus CCR8 cells
human CCR8 (human) [20] = biological target: human CCR8 (human) (UniProt P51685); test: FACS on HEK293-human CCR8 cells; remark: listed apart in the source
human CCR8 (human) [21] = biological target: human CCR8 (human) (UniProt P51685); test: FACS, competition with AF647-human CCL1 on CHO-K1-human CCR8 cells; remark: listed apart in the source
[22] = biological target: cynomolgus CCR8 (cynomolgus) (UniProt G7NYJ2); test: FACS on HEK293-cynomolgus CCR8 cells; remark: listed apart in the source
[23] = biological target: cynomolgus CCR8 (cynomolgus) (UniProt G7NYJ2); test: FACS on HEK293-cynomolgus CCR8 cells; remark: listed apart in the source
human CCR8 (human) [24] = biological target: human CCR8 (human) (UniProt P51685); test: FACS on HEK293-human CCR8 cells; remark: listed apart in the source
human CCR8 (human) [25] = biological target: human CCR8 (human) (UniProt P51685); test: cell-based or functional assay; remark: listed apart in the source
[26] = biological target: human CCR8 tagged with ProLink (PK) (human) (UniProt P51685); test: cell-based or functional assay
Chain of human CCR8 tagged with ProLink (PK) (human) (P51685 whole entry): as above

human CCR8 (human) [27] = biological target: human CCR8 (human) (UniProt P51685); test: FACS, competition with AF647-human CCL1 on HEK293-human CCR8 cells
human CCR1 (human) = biological target: T1, human CCR1 (human) (UniProt P32246); test: FACS on ExpiCHO-S-human CCR1 cells
T1 sequence (looked up): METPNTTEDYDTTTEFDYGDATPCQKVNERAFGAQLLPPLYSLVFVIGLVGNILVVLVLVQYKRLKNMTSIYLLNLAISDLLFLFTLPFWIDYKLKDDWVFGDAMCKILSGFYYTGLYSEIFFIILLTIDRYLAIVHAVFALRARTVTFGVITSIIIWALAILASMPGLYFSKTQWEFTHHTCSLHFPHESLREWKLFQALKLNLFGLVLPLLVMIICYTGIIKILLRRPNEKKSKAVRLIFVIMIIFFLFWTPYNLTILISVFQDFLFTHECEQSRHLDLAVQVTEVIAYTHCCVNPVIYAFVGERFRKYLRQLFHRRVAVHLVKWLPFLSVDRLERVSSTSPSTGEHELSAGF

human CCR8 (human) [28] = biological target: human CCR8 (human) (UniProt P51685); test: cell-based or functional assay; remark: listed apart in the source
human CCR8 (human) [29] = biological target: human CCR8 (human) (UniProt P51685); test: FACS on CHO-K1-human CCR8 cells; remark: listed apart in the source
human CCR4 (human) = biological target: T2, human CCR4 (human) (UniProt P51679); test: FACS on ExpiCHO-S-human CCR4 cells
T2 sequence (looked up): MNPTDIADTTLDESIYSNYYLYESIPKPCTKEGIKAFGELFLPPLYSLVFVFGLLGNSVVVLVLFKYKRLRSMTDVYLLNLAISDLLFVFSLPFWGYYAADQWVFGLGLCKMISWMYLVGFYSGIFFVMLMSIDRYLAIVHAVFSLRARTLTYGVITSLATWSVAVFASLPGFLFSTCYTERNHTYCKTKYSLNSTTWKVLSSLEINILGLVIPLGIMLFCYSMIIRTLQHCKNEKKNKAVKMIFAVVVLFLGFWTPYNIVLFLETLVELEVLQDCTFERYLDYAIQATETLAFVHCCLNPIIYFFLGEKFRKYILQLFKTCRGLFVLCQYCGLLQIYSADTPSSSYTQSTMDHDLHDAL

human CCR8 (human) [30] = biological target: human CCR8 (human) (UniProt P51685); test: FACS on HEK293-human CCR8 cells; remark: listed apart in the source
human CCR8 (human) [31] = biological target: human CCR8 (human) (UniProt P51685); test: FACS, competition with AF647-human CCL1 on CHO-K1-human CCR8 cells; remark: listed apart in the source

Chain of cynomolgus CCR8 (cynomolgus) (G7NYJ2 entry or part of it): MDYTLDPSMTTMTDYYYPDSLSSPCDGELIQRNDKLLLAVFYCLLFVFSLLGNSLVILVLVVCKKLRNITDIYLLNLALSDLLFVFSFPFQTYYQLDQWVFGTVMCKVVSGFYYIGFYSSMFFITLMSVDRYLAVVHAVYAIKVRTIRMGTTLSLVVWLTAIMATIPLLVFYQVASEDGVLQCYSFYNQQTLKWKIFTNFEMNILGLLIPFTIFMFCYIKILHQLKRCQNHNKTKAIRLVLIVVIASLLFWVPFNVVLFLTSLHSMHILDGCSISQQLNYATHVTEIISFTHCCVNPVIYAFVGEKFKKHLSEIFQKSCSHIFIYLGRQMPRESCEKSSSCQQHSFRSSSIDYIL

B1: 433H monoclonal antibody (BD Biosciences, #644092) (antibody, from another filing, mouse IgG2a, V domains shown)
VH: EVQLVETGGGLVQPKGSLRLSCAASGFPFNTFAMNWVRQAPGKGLEWLARIRSKSNNYATYYADSVKDRFTISRDDSRRMLYLLMNNVKFEDTAIYYCVRGKENNYGYAMDYWGQGTSVTVSS
VL: DIVMTQAAPSVPVTPGESVSISCRSSQSLLHSNGNTYLYWFLQRPGQSPQLLIYRMSNLASGVPDRFSGSGSGTAFTLRISRVEAEDVGVYYCMQHLEYPFTFGIGTKLELKR
Max MFI [1]: 2340 MFI
EC50 [2]: 19.4 nM
Max MFI [2]: 1.72e+06 MFI
IC50 (human CCR8 (human) [3]): 0.171 nM
Max Inhibition (%) (human CCR8 (human) [3]): 98.7%
Max MFI (human CCR8 (human) [4]): 31900 MFI
Max MFI [5]: 27 MFI
EC50 [6]: 9.08 nM
Max MFI [6]: 802 MFI
EC50 (human CCR8 (human) [7]): 0.123 nM
Max MFI (human CCR8 (human) [7]): 60800 MFI
Binding Ratio (GFP + MFI)/(GFP - MFI) [8]: 7.9
EC50 (human CCR8 (human) [9]): 0.117 nM
Max MFI (human CCR8 (human) [9]): 2020 MFI
IC50 (human CCR8 (human) [10]): 0.114 nM
Max Inhibition (%) (human CCR8 (human) [10]): 100%
Binding Ratio (GFP + MFI)/(GFP - MFI) (human CCR8 (human) [11]): 158
EC50 (human CCR8 (human) [11]): 0.124 nM
Max MFI (human CCR8 (human) [11]): 4920 MFI
EC50 (human CCR8 (human) [12]): 0.0823 nM
Max MFI (human CCR8 (human) [12]): 814000 MFI
IC50 (human CCR8 (human) [13]): 0.198 nM
Max Inhibition (%) (human CCR8 (human) [13]): 99.6%
EC50 (human CCR8 (human) [14]): 0.119 nM
Max MFI (human CCR8 (human) [14]): 2810 MFI
IC50, inhibition of CCL1 induced β-Arrestin recruitment (human CCR8 (human) [15]): 0.89 nM
Max Inhibition (%), CCL1 induced β-Arrestin recruitment (human CCR8 (human) [15]): 92.5%
IC50 (human CCR8 (human) [16]): 0.143 nM
Max Inhibition (%) (human CCR8 (human) [16]): 99.8%
IC50 (human CCR8 (human) [17]): 0.178 nM
Max Inhibition (%) (human CCR8 (human) [17]): 99.6%
Inhibition Rate (%) (human CCR8 (human) [18]): 100%
Max MFI [19]: 2010 MFI
EC50 (human CCR8 (human) [20]): 0.197 nM
Max MFI (human CCR8 (human) [20]): 2780 MFI
IC50 (human CCR8 (human) [21]): 0.243 nM
Max Inhibition (%) (human CCR8 (human) [21]): 96%
Max MFI [22]: 1240 MFI
Max MFI [23]: 648000 MFI
EC50 (human CCR8 (human) [24]): 0.215 nM
Max MFI (human CCR8 (human) [24]): 5940 MFI
IC50, blocking of CCL1 induced cell migration (human CCR8 (human) [25]): 1.25 nM
IC50, blocking of cell migration induced by CCL1 (human CCR8 (human) [25]): 0.278 nM
IC50, inhibition of CCL1 induced β-Arrestin recruitment (human CCR8 (human) [25]): 1.06 nM
Max Inhibition (%), CCL1 induced β-Arrestin recruitment (human CCR8 (human) [25]): 89.9%
Max Inhibition (%), cell migration induced by CCL1 (human CCR8 (human) [25]): 104%
Max inhibition (%), CCL1 induced cell migration (human CCR8 (human) [25]): 117%
IC50, inhibition of CCL1 induced β-Arrestin recruitment, CHO-K1-human CCR8 β-Arrestin cells [26]: 6.54 nM
Max Inhibition (%), CCL1 induced β-Arrestin recruitment, CHO-K1-human CCR8 β-Arrestin cells [26]: 80.3%
IC50 (human CCR8 (human) [27]): 0.335 nM
Max Inhibition (%) (human CCR8 (human) [27]): 98.8%
Max MFI (human CCR1 (human)): 133 MFI
IC50, inhibition of CCL1 induced β-Arrestin recruitment (human CCR8 (human) [28]): 0.23 nM
Max Inhibition (%), CCL1 induced β-Arrestin recruitment (human CCR8 (human) [28]): 92.6%
EC50 (human CCR8 (human) [29]): 0.0699 nM
Max MFI (human CCR8 (human) [29]): 215000 MFI
Max MFI (human CCR4 (human)): 6.1 MFI
EC50 (human CCR8 (human) [30]): 0.0878 nM
Max MFI (human CCR8 (human) [30]): 3890 MFI
IC50 (human CCR8 (human) [31]): 0.193 nM
Max Inhibition (%) (human CCR8 (human) [31]): 99.1%

B2: CCL1 (CN-07, Almac) (ligand, UniProt P22362 24-96, looked up)
chain: KSMQVPFSRCCFSFAEQEIPLRAILCYRNTSSICSNEGLIFKLKRGKEACALDTVGWVQRHRKMLRHCPSKRK
β-arrestin recruitment EC50 (CHO-K1 cells co-expressing PK-tagged human CCR8 and EA) (human CCR8 (human) [25]): 0.288 nM

B3: Hu149-11G1x (antibody, V domains shown, not shown: a dimerising Fc or GST)
VH: EVQLVESGGGLVQPGGSLKLSCAASGFTFNTYAMNWVRQASGKGLEWVGRIRSKSNFYATAYAASVKGRFTISRDDSKNTAYLQMNSLKTEDTAVYYCTRGREYGSSYAMDYWGQGTLVTVSS
VL: DIVMTQSPLSLPVTPGEPASISCRSSKSLLHSNANTYLYWFLQKPGQSPQLLIYRMSNLASGVPDRFSGSGSGTDFTLKISRVEAEDVGVYYCMQHLEYPLTFGGGTKVELK
EC50, ADCC reporter, F variant CD16a/NFAT-Jurkat, target CHO-K1-human CCR8 cells (human CCR8 (human) [25]): 0.00351 nM
EC50, ADCC reporter, F variant CD16a/NFAT-Jurkat, target HuT78 cells (human CCR8 (human) [25]): 0.0046 nM
EC50, ADCC reporter, V variant CD16a/NFAT-Jurkat, target CHO-K1-human CCR8 cells (human CCR8 (human) [25]): 0.00487 nM
EC50, ADCC reporter, V variant CD16a/NFAT-Jurkat, target HuT78 cells (human CCR8 (human) [25]): 0.00559 nM
EC50, ADCC with human PBMCs, target CHO-K1-human CCR8 cells (human CCR8 (human) [25]): 0.000384 nM
Max (RLU), ADCC reporter, F variant CD16a/NFAT-Jurkat, target CHO-K1-human CCR8 cells (human CCR8 (human) [25]): 8.34e+06 RLU
Max (RLU), ADCC reporter, F variant CD16a/NFAT-Jurkat, target HuT78 cells (human CCR8 (human) [25]): 1.51e+07 RLU
Max (RLU), ADCC reporter, V variant CD16a/NFAT-Jurkat, target CHO-K1-human CCR8 cells (human CCR8 (human) [25]): 4.09e+06 RLU
Max (RLU), ADCC reporter, V variant CD16a/NFAT-Jurkat, target HuT78 cells (human CCR8 (human) [25]): 9.06e+06 RLU
Max specific lysis (%), ADCC with human PBMCs, target CHO-K1-human CCR8 cells (human CCR8 (human) [25]): 44.2%
